Measured values as given in patent US20220155286.

Key:
[1] = target: BCL6 (B-Cell Lymphoma 6) S-Peptide micro-tag construct
[2] = target: MTH1-S-tag fusion protein (no linker between MTH1 and the S-tag peptide)
[3] = target: MTH1-10aa-S-tag fusion protein
[4] = target: MTH1-3aa-S-tag fusion protein

B1: His tagged RNase donor protein (S protein) (protein)
chain: MSSSNYCNQMMKSRNLTKDRCKPVNTFVHESLADVQAVCSQKNVACKNGQTNCYQSYSTMSITDCRETGSSKYPNCAYKTTQANKHIIVACEGNPYVPVHFDASVHHHHHH
fluorescence signal (RLU/min) after heat challenge [1]: the micro-tag construct was denatured in the heat challenge and there was less micro-tag available for enzyme complementation resulting in lower fluorescence signal | S protein concentration at which the fluorescent signal starts to saturate [2]: S protein concentration started to saturate signal at about 1-2 ng/ul S protein | fluorescent signal (cleavage of the FRET substrate by complemented RNase S), 50 ug lysate, thermal gradient [2]: there was no significant effect of spacer length on fluorescent signal | S protein concentration at which the fluorescent signal starts to saturate [3]: S protein concentration started to saturate signal at about 1-2 ng/ul S protein | fluorescent signal (cleavage of the FRET substrate by complemented RNase S), 50 ug lysate, thermal gradient [3]: there was no significant effect of spacer length on fluorescent signal | S protein concentration at which the fluorescent signal starts to saturate [4]: S protein concentration started to saturate signal at about 1-2 ng/ul S protein | fluorescence increase (RLU change per minute) [4]: detected fluorescence increase that was directly proportional to the amount of micro-tagged protein in the reaction | fluorescent signal (cleavage of the FRET substrate by complemented RNase S), 50 ug lysate, thermal gradient [4]: there was no significant effect of spacer length on fluorescent signal | kinetic trace of the S-tag (Micro-tag) fluorescence signal over 20 minutes [4]: A kinetic trace of the development of the S-tag (Micro-tag) fluorescence signal over the course of 20 minutes
